Laboratory results taken from patent publication US9279769B2, “Proteins that efficiently generate singlet oxygen” (The Regents of the University of California, priority 2010, dated 2016).
Several values for one entry are separate records, joined by “and”; a condition that tells them apart may be missing. Identical values can stand only once.

Test system: IFP1.4
Assay: bleaching of fused IFP1.4 in E. coli colonies by blue light
Format: cell-based
From the text: In phototropin, the excited state energy of FMN is consumed to form a covalent bond with a cysteine. To divert this energy into ^1O2 generation, we carried out saturation mutagenesis of the relevant cysteine (Cys426) of the LOV2 domain of Arabidopsis thaliana phototropin 2 (AtPhot2). To screen for optimal ^1O2 production, these site-specific mutants were fused to an infrared fluorescent protein, IFP1.4, which is readily bleached by ^1O2 [21]. Colonies of E. coli expressing the fusion proteins were imaged in the IFP channel (ex 684/em 708 nm) before and after blue light (488 nm) illumination (FIG. 1A). […] The small side chain of the glycine residue may provide space around the cofactor that would allow O2 close apposition to FMN for efficient energy transfer.
[…] was synthesized by overlap extension PCR [48]. Genetic libraries were constructed by saturation and random mutagenesis and DNA shuffling. Mutants were fused to IFP1.4 by overlap extension PCR and cloned into a modified pBAD vector containing the heme oxygenase-1 gene from cyanobacteria. Libraries were expressed in E. coli strain TOP10 and screened by imaging the agar plates with colonies in the IFP channel before and after blue light illumination. Protein purification and spectroscopic characterization experiments were done as described.

B1: C426G (protein)
chain: MERPRAPPSPLNDAESLSERRSLEIFNPSSGKETHGSTSSSSKPPLDGNNKGSSSKWMEFQDSAKITERTAEWGLSAVKPDSGDDGISFKLSSEVERSKNMSRRSSEESTSSESGAFPRVSQELKTALSTLQQTFVVSDATQPHCPIVYASSGFFTMTGYSSKEIVGRNCRFLQGPDTDKNEVAKIRDCVKNGKSYCGRLLNYKKDGTPFWNLLTVTPIKDDQGNTIKFIGMQVEVSKYTEGVNDKALRPNGLSKSLIRYDARQKEKALDSITEVVQTIRHRKSQVQESVSNDTMVKPDSSTTPTPGRQTRQSDEASKSFRTPGRVSTPTGSKLKSSNNRHEDLLRMEPEELMLSTEVIGQRDSWDLSDRERDIRQGIDLATTLERIEKNFVISDPRLPDNPIIFASDSFLELTEYSREEILGRNGRFLQGPETDQATVQKIRDAIRDQREITVQLINYTKSGKKFWNLFHLQPMRDQKGELQYFIGVQLDGSDHVEPLQNRLSERTEMQSSKLVKATATNVDEAVRELPDANTRPEDLWAAHSKPVYPLPHNKESTSWKAIKKIQASGETVGLHHFKPIKPLGSGDTGSVHLVELKGTGELYAMKAMEKTMMLNRNKAHRACIEREIISLLDHPFLPTLYASFQTSTHVCLITDFCPGGELFALLDRQPMKILTEDSARFYAAEVVIGLEYLHCLGIVYRDLKPENILLKKDGHIVLADFDLSFMTTCTPQLIIPAAPSKRRRSKSQPLPTFVAEPSTQSNSFVGTEEYIAPEIITGAGHTSAIDWWALGILLYEMLYGRTPFRGKNRQKTFANILHKDLTFPSSIPVSLVGRQLINTLLNRDPSSRLGSKGGANEIKQHAFFRGINWPLIRGMSPPPLDAPLSIIEKDPNAKDIKWEDDGVLVNSTDLDIDLF
modifications: miniSOG polypeptide
For B1, the “decrease of IFP fluorescence” value (blue light (488 nm) illumination) was −70%, the “IFP1.4 brightness before irradiation” value (two colonies, fusion to IFP1.4) was 100 and 96 and the “IFP1.4 brightness after irradiation” value (two colonies, irradiation at 480/30 nm) was 27 and 28.
